The target in test [1] is hamster PrP conversion reaction (PrPsen to PrPres) (Mesocricetus auratus, UniProt P04273). The experiment in a line: biochemical. More on the design: species or system Syrian golden hamster.
Another test has as its target 35S-HaPrPsen (Mesocricetus auratus, UniProt P04273). The format is biochemical, hamster.

Two substances from patent US6355610B2 (priority 1998, dated 2002) can be followed below.

pIC50: −log10 of the molar value. Entries after “also recorded” stand apart in the source; their conditions may differ. Ends that are not written are not given here. Some results are limits rather than exact numbers.

On to GAVVGGLGGYMLGSAMSR [P119-130], for which, in test [1], the negative-log IC50 (pIC50) was > 4.00. Regarding Aβ1-40, in the test with 35S-HaPrPsen, the “peptide induced aggregation of 35S-HaPrPsen” value is “caused aggregation and pelleting of 35S-HaPrPsen”. Further, in test [1], the “inhibition of the conversion reaction (in words)” value is given as “gave no inhibition of conversion; also recorded: unable to inhibit the PrPsen to PrPres conversion at all concentrations tested”.
